B1: HDV Ribozyme (parent)
chain: GGCCGGCAUGGUCCCAGCCUCCUCGCUGGCGCCGGCUGGGCAACAUUCCGAGGGGACCGUCCCCUCGGUAAUGGCGAAUGGGACCCA

Variants of: B1
Assay: self-cleavage, relative activity (ratio to wild type); higher = more cleavage; co-transcriptional

Question: Which self-cleavage does the source give for G17C G59A here?
Answer: 0.231

Question: For A16G C36A, which self-cleavage is on record?
Answer: 0.229

Question: With A16U C57A as the variant, how does the self-cleavage read?
Answer: 1.17

Question: For G17C A71U, which self-cleavage is on record?
Answer: 0.32

Question: With G17C A71G as the variant, how does the self-cleavage read?
Answer: 0.475

Question: With G17U G25C as the variant, how does the self-cleavage read?
Answer: 0.0811

Question: Which self-cleavage does the source give for G17U G25A here?
Answer: 0.0489

Question: With A16C C84A as the variant, how does the self-cleavage read?
Answer: 0.655

Question: With A16C C84G as the variant, how does the self-cleavage read?
Answer: 0.87

Question: With G17C G34C as the variant, how does the self-cleavage read?
Answer: 0.0723

Question: Which self-cleavage does the source give for G17A G68C here?
Answer: 0.575

Question: Which self-cleavage does the source give for G17C G82C here?
Answer: 0.133

Question: For G17U C18G, which self-cleavage is on record?
Answer: 0.095

Question: For G17C C32G, which self-cleavage is on record?
Answer: 0

Question: With G17U C48A as the variant, how does the self-cleavage read?
Answer: 0.538

Question: With G17U C63A as the variant, how does the self-cleavage read?
Answer: 0.517

Question: With G17A G40U as the variant, how does the self-cleavage read?
Answer: 0.562

Question: For G17U C26A, which self-cleavage is on record?
Answer: 0.491

Question: For G17C C24G, which self-cleavage is on record?
Answer: 0.0898

Question: With A16G C57G as the variant, how does the self-cleavage read?
Answer: 1.2

Question: Which self-cleavage does the source give for A16G C57U here?
Answer: 1.14

Question: For C18A G54C, which self-cleavage is on record?
Answer: 0.189

Question: Which self-cleavage does the source give for G17A C66A here?
Answer: 0.748

Question: For G17C G76U, which self-cleavage is on record?
Answer: 0.773

Question: For G17C G76A, which self-cleavage is on record?
Answer: 0.446

Question: With G17C G76C as the variant, how does the self-cleavage read?
Answer: 0.499

Question: With C18A C33G as the variant, how does the self-cleavage read?
Answer: 0

Question: With G17U C58G as the variant, how does the self-cleavage read?
Answer: 0.277

Question: With G17U C58U as the variant, how does the self-cleavage read?
Answer: 0.708

Question: For C18A C63G, which self-cleavage is on record?
Answer: 0.0791

Question: With C18A C62U as the variant, how does the self-cleavage read?
Answer: 0.264

Question: Which self-cleavage does the source give for A16U G53U here?
Answer: 0.985

Question: Which self-cleavage does the source give for G17C G31C here?
Answer: 0.0475

Question: For C18A C61U, which self-cleavage is on record?
Answer: 0.237

Question: For G17C C61A, which self-cleavage is on record?
Answer: 0.185

Question: For G17C U20G, which self-cleavage is on record?
Answer: 0.128

Question: With A16U G50A as the variant, how does the self-cleavage read?
Answer: 0.933

Question: For G17A G31A, which self-cleavage is on record?
Answer: 0.234

Question: With A16U G34U as the variant, how does the self-cleavage read?
Answer: 0.128

Question: With A16U U79A as the variant, how does the self-cleavage read?
Answer: 1.09

Question: For G17U A56U, which self-cleavage is on record?
Answer: 0.533

Question: For G17U U46C, which self-cleavage is on record?
Answer: 0.356

Question: With G17U C64U as the variant, how does the self-cleavage read?
Answer: 0.521

Question: Which self-cleavage does the source give for G17C C57U here?
Answer: 0.256

Question: With A16G C26U as the variant, how does the self-cleavage read?
Answer: 0.86

Question: For A16G C26A, which self-cleavage is on record?
Answer: 0.867

Question: With A16G C26G as the variant, how does the self-cleavage read?
Answer: 0.831

Question: For A16U C41A, which self-cleavage is on record?
Answer: 0.87

Question: With A16U C41G as the variant, how does the self-cleavage read?
Answer: 0.401

Question: With A16U U23A as the variant, how does the self-cleavage read?
Answer: 0.739

Question: Which self-cleavage does the source give for A16U U23G here?
Answer: 0.575

Question: For G17A C75U, which self-cleavage is on record?
Answer: 0.138

Question: For G17A C75A, which self-cleavage is on record?
Answer: 0.128

Question: Which self-cleavage does the source give for A16C C86A here?
Answer: 0.692

Question: For G17A G29U, which self-cleavage is on record?
Answer: 0.0767

Question: With G17A G29C as the variant, how does the self-cleavage read?
Answer: 0.0405

Question: With C18A A83G as the variant, how does the self-cleavage read?
Answer: 0.0443

Question: Which self-cleavage does the source give for A16U A56U here?
Answer: 1.15

Question: With G17A C48G as the variant, how does the self-cleavage read?
Answer: 0.46

Question: Which self-cleavage does the source give for G17A C48U here?
Answer: 0.785

Question: With G17A C48A as the variant, how does the self-cleavage read?
Answer: 0.506

Question: Which self-cleavage does the source give for A16U G25C here?
Answer: 0.32

Question: With C18A C58A as the variant, how does the self-cleavage read?
Answer: 0.285

Question: Which self-cleavage does the source give for G17A C63U here?
Answer: 0.88

Question: For C18A A77U, which self-cleavage is on record?
Answer: 0

Question: Which self-cleavage does the source give for G17C A83U here?
Answer: 0.256

Question: For G17C A83G, which self-cleavage is on record?
Answer: 0.131

Question: Which self-cleavage does the source give for G17A G74A here?
Answer: 0.132

Question: Which self-cleavage does the source give for A16U C86U here?
Answer: 0.852

Question: Which self-cleavage does the source give for G17C G35C here?
Answer: 0.0437

Question: Which self-cleavage does the source give for G17A C86A here?
Answer: 0.538

Question: With C18A A71U as the variant, how does the self-cleavage read?
Answer: 0

Question: Which self-cleavage does the source give for G17U A71U here?
Answer: 0.443

Question: For C18A U20A, which self-cleavage is on record?
Answer: 0.0875

Question: With A16U A42G as the variant, how does the self-cleavage read?
Answer: 0.166

Question: For G17A G34U, which self-cleavage is on record?
Answer: 0.0346

Question: With G17A C22U as the variant, how does the self-cleavage read?
Answer: 0.194

Question: Which self-cleavage does the source give for G17A C22A here?
Answer: 0.128

Question: For C18A G31C, which self-cleavage is on record?
Answer: 0.163

Question: Which self-cleavage does the source give for C18A G73C here?
Answer: 0.0396

Question: With A16C G34U as the variant, how does the self-cleavage read?
Answer: 0.0489

Question: Which self-cleavage does the source give for G17A G38A here?
Answer: 0.104

Question: Which self-cleavage does the source give for A16G U65A here?
Answer: 0.974
